In patent publication US7041801 (VANDERBILT UNIVERSITY, dated 2006):

Molecular target: T1, integrin αVβ3 expressed by human umbilical vein endothelial cells (HUVEC) (human, UniProt P06756 31-1048; P05106 27-788)
T1 construct: whole, on cells; also called integrin alpha V beta 3
Assay: binding to HUVEC; the receptor on HUVEC was identified as αVβ3
Procedure: Human umbilical vein endothelial cells (HUVEC) (Clonetics Inc., San Diego, Calif.) were grown as indicated by the supplier in endothelial growth media supplemented with 10 ng/ml human recombinant epidermal growth factor, 1 μg/ml hydrocortisone, 50 μg/ml gentamicin, 12 μg/ml bovine brain extract and 2% FBS. Cells were grown at: 37° C./5% CO_2 to 70% confluency before use in the binding assay. […] The plates were washed with PBS and blocked for 30 min with a solution of heat treated (95° C. for 5 min) PBS containing 3% BSA. HUVEC cells were harvested by trypsinization and resuspended in an adhesion buffer (Hanks balanced salt solution pH 7.4 containing 10 mM Hepes, 2.2 mM MgCl_2, 0.2 mM MnCl_2 and 1% BSA). Cells (10^4/100 μl) were added to each well in the presence or absence of the indicated antagonists or controls at varying concentrations. […] Cells were incubated at 37° C./5% CO_2 for 60–90 min and wells were washed until no cells remained in the BSA control. To count remaining cells, 100 μl of endothelial media was added to each well. Cells number was determined by the Promega Cell titer AQ as indicated by the manufacturer.

T1 sequence (P06756 31-1048, chain 1 of 2): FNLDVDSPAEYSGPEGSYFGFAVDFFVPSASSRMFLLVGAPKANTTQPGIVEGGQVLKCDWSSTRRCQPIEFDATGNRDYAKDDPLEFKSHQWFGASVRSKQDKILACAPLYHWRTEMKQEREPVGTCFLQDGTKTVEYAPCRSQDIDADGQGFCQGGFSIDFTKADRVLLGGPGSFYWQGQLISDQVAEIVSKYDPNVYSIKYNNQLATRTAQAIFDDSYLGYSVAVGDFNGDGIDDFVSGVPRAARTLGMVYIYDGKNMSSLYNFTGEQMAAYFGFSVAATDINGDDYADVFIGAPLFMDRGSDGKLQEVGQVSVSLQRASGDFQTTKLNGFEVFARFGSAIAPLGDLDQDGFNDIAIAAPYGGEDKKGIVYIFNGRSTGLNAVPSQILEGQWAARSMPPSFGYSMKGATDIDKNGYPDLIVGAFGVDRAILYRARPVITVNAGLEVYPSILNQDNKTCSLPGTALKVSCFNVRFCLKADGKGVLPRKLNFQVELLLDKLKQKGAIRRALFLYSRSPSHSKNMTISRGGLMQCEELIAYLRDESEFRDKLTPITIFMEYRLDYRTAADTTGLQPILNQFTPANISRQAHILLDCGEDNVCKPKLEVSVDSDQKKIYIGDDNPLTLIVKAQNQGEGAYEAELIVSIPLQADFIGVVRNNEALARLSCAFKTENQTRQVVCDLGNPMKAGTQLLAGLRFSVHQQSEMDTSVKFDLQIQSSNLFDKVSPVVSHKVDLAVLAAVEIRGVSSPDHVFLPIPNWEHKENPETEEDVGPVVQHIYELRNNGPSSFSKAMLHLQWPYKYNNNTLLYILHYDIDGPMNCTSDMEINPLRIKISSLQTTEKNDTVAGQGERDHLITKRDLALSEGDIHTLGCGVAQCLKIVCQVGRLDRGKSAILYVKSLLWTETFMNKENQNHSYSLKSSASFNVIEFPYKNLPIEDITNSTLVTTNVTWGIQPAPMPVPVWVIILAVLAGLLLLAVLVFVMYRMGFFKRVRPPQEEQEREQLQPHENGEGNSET
T1 sequence (P05106 27-788, chain 2 of 2): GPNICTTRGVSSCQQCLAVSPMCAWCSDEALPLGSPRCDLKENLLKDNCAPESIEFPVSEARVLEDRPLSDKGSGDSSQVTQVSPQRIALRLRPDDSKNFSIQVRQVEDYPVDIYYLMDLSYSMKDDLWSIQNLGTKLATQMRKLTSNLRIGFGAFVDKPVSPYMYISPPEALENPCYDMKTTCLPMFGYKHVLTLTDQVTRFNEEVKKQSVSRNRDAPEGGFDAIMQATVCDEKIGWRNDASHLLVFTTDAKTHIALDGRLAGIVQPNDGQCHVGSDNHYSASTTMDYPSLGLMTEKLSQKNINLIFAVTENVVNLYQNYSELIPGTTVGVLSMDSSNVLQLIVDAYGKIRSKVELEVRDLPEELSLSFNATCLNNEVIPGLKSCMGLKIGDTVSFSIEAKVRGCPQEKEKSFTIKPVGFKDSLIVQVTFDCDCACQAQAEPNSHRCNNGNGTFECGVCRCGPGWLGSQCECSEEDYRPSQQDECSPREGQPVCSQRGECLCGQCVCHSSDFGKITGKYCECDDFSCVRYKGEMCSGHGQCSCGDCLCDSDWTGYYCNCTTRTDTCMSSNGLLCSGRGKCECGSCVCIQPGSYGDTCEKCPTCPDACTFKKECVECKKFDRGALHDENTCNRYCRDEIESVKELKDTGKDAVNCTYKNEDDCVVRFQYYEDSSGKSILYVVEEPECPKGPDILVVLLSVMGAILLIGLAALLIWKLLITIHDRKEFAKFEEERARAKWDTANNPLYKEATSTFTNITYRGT

binding result: binds
B1: murine Del-1 (major form) expressed by del-1 transfected yolk sac YS-B cells (ligand)
chain: DICNPNPCENGGICLSGLADDSFSCECPEGFAGPNCSSVVEVASDEEKPTSAGPCIPNPCHNGGTCEISEAYRGDTFIGYVCKCPRGFNGIHCQHNINECEAEPCRNGGICTDLVANYSCECPGEFMGRNCQYKCSGHLGIEGGIISNQQITASSNHRALFGLQKWYPYYARLNKKGLINAWTAAENDRWPWIQINLQRKMRVTGVITQGAKRIGSPEYIKSYKIAYSNDGKTWAMYKVKGTNEEMVFRGNVDNNTPYANSFTPPIKAQYVRLYPQICRRHCTLRMELLGCELSGCSEPLGMKSGHIQDYQITASSVFRTLNMDMFTWEPRKARLDKQGKVNAWTSGHNDQSQWLQVDLLVPTKVTGIITQGAKDFGHVQFVGSYKLAYSNDGEHWMVHQDEKQRKDKVFQGNFDNDTHRKNVIDPPIYARFIRILPWSWYGRITLRSELLGCAEEE
notes: The protein is found in cell lysates, on the cell membrane and in the extracellular matrix of the transfectants (52 kDa band); also called del-1 transfectants; full-length Del-1 protein
